Test results taken from patent publication US20100151486A1, “OSTEOPONTIN FUNCTIONAL EPITOPES, MONOCLONAL ANTIBODIES AGAINST THE EPITOPES AND USES THEREOF” (SHANGHAI NATIONAL ENGINEERING RESEARCH CENTER OF A, priority 2007, published 2010).
“Also recorded” adds a separate entry of the source.

What was measured:
MDA-MB-435s cells [1] = assay: Primary breast tumor growth in nude mice (MDA-MB-435s orthotopic); format: in vivo; conditions: 5 mg/kg, 2 times per week; by the 10th week; P<0.05
Description: The MDA-MB-435s cells were detached and re-suspended in serum-free DMEM to the concentration of 5×10^7 cells/ml. Each group of 10 female 4 to 6-week old nude mice were anaesthetized by injection of sodium pentobarbital (ip.). Under sterile condition, the skin was sterilized, and a small incision (0.5-mm) was made in the skin over the lateral thorax below the right limb. The mammary fat pads (mfp) were exposed and MDA-MB-435s cells (5×10^6 in 100 μl DMEM) were orthotopically injected into the mfps. The cut was then closed. The animals were randomly divided into four groups, and each accepted the treatment as specified below from the day after the tumor cell inoculation:
1A12: 5 mg/kg, 2 times per week;
Control antibody: 5 mg/kg, 2 times per week.
The tumor formation in nude mice was observed once a week, the maxima of the diameter (length) and a perpendicular dimension of the tumor (width) were measured using a caliper, and the volume was calculated as follows: Volume=0.52×length×width^2. The changed tumor volumes were plotted versus the time into a tumor growth curve.
The tumor size was plotted versus time into a tumor growth curve. […]

MDA-MB-435s cells [2] = assay: Cell adhesion assay on hOPN-coated plate; format: cell-based; conditions: antibody 25 μg/ml; plate coated with 10 μg/ml hOPN; 2 hrs
Description: MDA-MB-435s was purchased from the Institute of Cell Biology of Chinese Academy of Sciences (Shanghai, China), and 23C3D3 was used as the irrelevant antibody.
A 96-well plate (Greiner) was coated with 10 μg/ml hOPN (prepared in Example 3) or BSA (SIGMA) at 4° C. overnight, and was then blocked with 1% BSA/PBS at 37° C. for 1 hour to block any non-specific binding sites. The MDA-MB-435s cells were detached using 0.2% EDTA and then re-suspended in 0.25% BSA/DMEM at the concentration of 5×10^5 cells/ml. To each well, 100 μl (5×10^4) MDA-MB-435s cells were added in the presence of various anti-OPN antibodies (25 μg/ml) murine anti-human OPN antibody 1A12, the human-murine chimeric antibody c 1A12 or the humanized antibody h1A12 as treatment groups and the irrelevant antibody 23C3 as control (25 μg/ml). After incubation at 37° C. for 2 hrs, the medium was removed and washed twice with PBS gently. The adherent cells were fixed in 1% formaldehyde at 4° C. for 10 minutes, stained with 0.5% crystal violet after washed with PBS and lysed with 2% Triton X-100 (50 μl). The absorbance was measured at 595 nm.

MDA-MB-435s cells [3] = assay: Clone formation on soft agar assay; format: cell-based; conditions: antibody 25 μg/ml every other day; 3 weeks
Description: The assay of clone formation on soft agar was conducted using a double-layer soft agar system. 2.5% melted agar was mixed the DMEM medium pre-warmed at 37° C. to formulate a 0.5% agar solution, which was then diluted with DMEM to a 0.3% agar solution. To each well of a 24-well plate was added 500 μl of a 0.5% agar solution, which was allowed to gel at 4° C., and then kept warm in an incubator at 37°C. The MDA-MB-435s cells were detached using 0.2% .EDTA and suspended in the 0.3% agar solution at the concentration of 5×10^3 cells/ml. 500 μl of the cell suspension was added each well and left to gel. From the second day, the cells were respectively treated with 1A12, c1A12, h1A12 or the irrelevant antibody (23C3D3) (25 μg/ml) every other day. After 3 weeks, the colony formation ability was evaluated by measuring the size of colonies containing more than 10 cells.

MDA-MB-435s cells [4] = assay: Microvessel density (MVD) in tumor, CD31 staining; format: in vivo, nude mice; conditions: P<0.01
Description: The tissue of the in situ tumor in mouse was isolated, and speed-frozen in liquid nitrogen. 8 um serial sections were made in a constant cold box frozen section machine, and dried for 5 min, before being fixed with acetone at −20° C. for 30 min, and then stained with IHC. Incubation with the rat anti-mouse monoclonal antibody CD31 (working concentration 1:100) was carried out at 4′C overnight. The secondary antibody was goat anti-rat IgG/PE (working concentration 1:100). After Hochest33258 contrast stain, photographs were taken under the fluorescence microscope.
The CD31 protein was mainly expressed on the membrane of the vascular endothelial cells, and was expressed in individual vascular endothelial cells and microvessel, intra-tumor microvessel could be visualized with an anti CD31 antibody (FIG. 16).

HUVECs = assay: Formation of capillary-like structure in HUVECs on matrigel; format: cell-based, human
Description: HUVECs were cultured in the M200 medium containing LCGS to 80% confluence. The matrigel stored at −20° C. was took out the day before experiment and naturally thawed at 4° C. for 3 to 12 hours. To each well of a 96-welt plate was added […] using a pre-cooled pipet with carefully removing the bubbles, wherein the whole procedure was carried on ice. The loaded plate was incubated at 37° C. for 1 hour to gel the matrigel. To each well, 100 μl HUVECs (2×10^4/well) was gently added onto the surface of matrigel. To the treatment groups were further added the anti-hOPN antibodies 1A12, c1A12 and h1A12. The plate was incubated at 37° C. for […], and the formation of the capillary-like structure was observed 6 hours after.

mouse OPN protein = target: T1, mouse OPN protein (Mus musculus, UniProt P10923); assay: Western blot of 1A12 against mouse OPN protein; format: binding
T1 construct: made in house; host or cells: Pichia (yeast), culture supernatant
T1 sequence (P10923 17-294): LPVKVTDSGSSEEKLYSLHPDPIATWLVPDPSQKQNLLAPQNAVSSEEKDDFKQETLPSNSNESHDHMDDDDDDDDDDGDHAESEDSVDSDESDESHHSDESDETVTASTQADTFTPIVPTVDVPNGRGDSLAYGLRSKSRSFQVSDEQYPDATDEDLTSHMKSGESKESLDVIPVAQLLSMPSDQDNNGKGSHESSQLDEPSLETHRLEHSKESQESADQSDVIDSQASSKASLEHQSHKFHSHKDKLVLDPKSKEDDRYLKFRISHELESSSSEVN
Description: 100 ug human OPN and an equal volume of Freund's adjuvant were emulsified, and injected intraperitoneally into BALB/C mice. Boost was given every two weeks at the same dose. […] The mouse spleen lymphocytes were fused with NS-1 cells using the classic PEG method. 96-well plate coated with 10 μg/ml human OPN was used for repeated screening by ELISA method to obtain hybridoma cell line 1A12 which was capable of stably expressing anti-human OPN antibody. The strain of 1A12 was amplified, and administrated to BALB/C mice in 5×10^6 cells/mouse (i.p.). The ascites was collected from the 10th day after the injection. The anti-human OPN monoclonal antibody was purified by affinity chromatography using protein A column.

B1: 1A12: murine anti-hOPN mAb; VH SEQ ID NO: 4, VL SEQ ID NO: 6; from hybridoma 1A12 (antibody, V domains shown)
VH: QVQLEQSGPELVKPGASVKMSCKSSGYTFTTYVMHWVKQKPGQGLEWIGYINPYNDGSKYNEKFKGKATLTSDKSSNTAYMELSSLTSEDSAVYYCASHYGGSPAYWGQGTLVTVSA
VL: DILMTQTPLSLPVSLGDQASISCRSSQSLVHSNGNTYLHWYLQKPGQSPKLLIYKVSNRFSGVPDRFSGSGSGTDFTLKISRVEAEDLGVYFCSQSTHVPWTFGGGTKLEIKR
modifications: amino acid sequence of the heavy chain variable region in 1A12; amino acid sequence of the light chain variable region in 1A12
notes: murine anti-hOPN mAb; from hybridoma 1A12
tumor size versus irrelevant antibody treated group (MDA-MB-435s cells [1]): significantly smaller; also recorded: effectively inhibit tumor development
blocking of the binding between MDA-MB-435s cells and hOPN (MDA-MB-435s cells [2]): effectively block
inhibition of clone size formed by MDA-MB-435s cells on soft agar (MDA-MB-435s cells [3]): could inhibit the clone size
microvessel density (MVD) in tumor versus irrelevant control (MDA-MB-435s cells [4]): significantly less; also recorded: effectively inhibit
potency of forming the capillary-like structure in HUVECs (HUVECs): reduce
cross-reaction with the mouse OPN protein (mouse OPN protein): cross-reacted
